In patent US20060058231A1 (Xencor, published 2006):
Residue numbers refer to the chain shown, from its start. In names and notes the source's numbering stands.

B1: BMP-7 variant K126G (ligand)
chain: STGGKQRSQNRSKTPKNQEALRMASVAENSSSDQRQACKKHELYVSFRDLGWQDWIIAPEGYAAYYCEGECAFPLNSYMNATNHAIVQTLVHFINPETVPKPCCAPTQLNAISVLYFDDSSNVILGKYRNMVVRACGCH
B2: BMP-7 variant R134S (ligand)
chain: B1 chain with G126K, R134S
B3: BMP-7 variant E60S (ligand)
chain: B1 chain with E60S, G126K
B4: BMP-7 variant K39D (ligand)
chain: B1 chain with K39D, G126K
B5: BMP-7 variant K39T (ligand)
chain: B1 chain with K39T, G126K
B6: BMP-7 variant R134L (ligand)
chain: B1 chain with G126K, R134L
B7: BMP-7 variant R134P (ligand)
chain: B1 chain with G126K, R134P
B8: BMP-7 variant Q53A (ligand)
chain: B1 chain with Q53A, G126K
B9: BMP-7 variant R134K (ligand)
chain: B1 chain with G126K, R134K
notes: In conditioned media; numbering on mature BMP-7
B10: BMP-7 variant Y78R (ligand)
chain: B1 chain with Y78R, G126K
notes: as for B9
B11: BMP-7 variant Y44T (ligand)
chain: B1 chain with Y44T, G126K
notes: as for B9
B12: BMP-7 variant S77P (ligand)
chain: B1 chain with S77P, G126K
notes: as for B9
B13: BMP-7 variant Y78S (ligand)
chain: B1 chain with Y78S, G126K
notes: as for B9
B14: BMP-7 variant Y78D (ligand)
chain: B1 chain with Y78D, G126K
notes: as for B9
B15: BMP-7 variant Y78P (ligand)
chain: B1 chain with Y78P, G126K
notes: as for B9
B16: BMP-7 variant Y78T (ligand)
chain: B1 chain with Y78T, G126K
notes: as for B9
B17: BMP-7 variant Y78H (ligand)
chain: B1 chain with Y78H, G126K
notes: as for B9
B18: BMP-7 variant W52A (ligand)
chain: B1 chain with W52A, G126K
notes: as for B9
B19: BMP-7 variant S77T (ligand)
chain: B1 chain with S77T, G126K
notes: as for B9
B20: BMP-7 variant V26G (ligand)
chain: B1 chain with V26G, G126K
notes: as for B9
B21: BMP-7 variant V26N (ligand)
chain: B1 chain with V26N, G126K
notes: as for B9
B22: BMP-7 variant W55N (ligand)
chain: B1 chain with W55N, G126K
notes: as for B9
B23: BMP-7 variant W55R (ligand)
chain: B1 chain with W55R, G126K
notes: as for B9
B24: BMP-7 variant S77E (ligand)
chain: B1 chain with S77E, G126K
notes: as for B9
B25: BMP-7 variant Y128K (ligand)
chain: B1 chain with G126K, Y128K
notes: as for B9
B26: BMP-7 variant Y44N (ligand)
chain: B1 chain with Y44N, G126K
notes: as for B9
B27: BMP-7 variant V123G (ligand)
chain: B1 chain with V123G, G126K
notes: as for B9
B28: BMP-7 variant V26E (ligand)
chain: B1 chain with V26E, G126K
notes: as for B9

Target: T1, ActRIIa receptor-Fc fusion (UniProt P27037 20-134, limits assumed)
T1 construct: BMP receptor-Fc fusion, detected with anti-human IgG-HRP
Assay: ELISA-like, fixed volume of conditioned media, receptor-Fc
T1 sequence (P27037 20-134 limits assumed): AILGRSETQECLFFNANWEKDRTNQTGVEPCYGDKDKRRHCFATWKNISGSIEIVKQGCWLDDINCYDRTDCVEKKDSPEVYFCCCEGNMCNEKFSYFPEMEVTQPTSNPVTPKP

| Binder | ActRIIa binding relative to wild type |
| --- | --- |
| B1 | 0.53 relative to wt = 1.0 |
| B2 | 1.17 relative to wt = 1.0 |
| B3 | 1.02 relative to wt = 1.0 |
| B4 | 0.88 relative to wt = 1.0 |
| B5 | 0.98 relative to wt = 1.0 |
| B6 | 0.99 relative to wt = 1.0 |
| B7 | 0.89 relative to wt = 1.0 |
| B8 | 0.84 relative to wt = 1.0 |

Target: T2, BMPRII receptor-Fc fusion (UniProt Q13873 27-151, limits assumed)
T2 construct: BMP receptor-Fc fusion, detected with anti-human IgG-HRP
T2 sequence (looked up): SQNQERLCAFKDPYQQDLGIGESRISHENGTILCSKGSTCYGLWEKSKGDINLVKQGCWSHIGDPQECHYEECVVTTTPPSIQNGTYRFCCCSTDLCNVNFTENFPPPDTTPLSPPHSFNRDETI
Assay: as above

| Binder | BMPRII binding relative to wild type |
| --- | --- |
| B1 | 0.12 relative to wt = 1.0 |
| B2 | 1.07 relative to wt = 1.0 |
| B3 | 0.88 relative to wt = 1.0 |
| B4 | 0.72 relative to wt = 1.0 |
| B5 | 0.75 relative to wt = 1.0 |
| B6 | 1 relative to wt = 1.0 |
| B7 | 0.5 relative to wt = 1.0 |
| B8 | 0.26 relative to wt = 1.0 |

Target: T3, BMPRIa receptor-Fc fusion (UniProt P36894 24-152, limits assumed)
T3 construct: BMP receptor-Fc fusion; also called ALK-3
Assay: as above
T3 sequence (P36894 24-152 limits assumed): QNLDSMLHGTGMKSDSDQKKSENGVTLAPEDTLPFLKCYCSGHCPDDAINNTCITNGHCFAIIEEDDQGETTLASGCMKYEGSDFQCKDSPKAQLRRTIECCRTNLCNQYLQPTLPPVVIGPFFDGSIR

| Binder | BMPRIa binding relative to wild type |
| --- | --- |
| B1 | 0.3 relative to wt = 1.0 |
| B2 | 1.1 relative to wt = 1.0 |
| B3 | 0.74 relative to wt = 1.0 |
| B4 | 0.67 relative to wt = 1.0 |
| B5 | 0.74 relative to wt = 1.0 |
| B6 | 1.03 relative to wt = 1.0 |
| B7 | 0.54 relative to wt = 1.0 |
| B8 | 0.54 relative to wt = 1.0 |

Target: T4, BMPRIb receptor-Fc fusion (UniProt O00238 14-126)
T4 construct: BMP receptor-Fc fusion, detected with anti-human IgG-HRP; also called ALK-6
T4 sequence (looked up): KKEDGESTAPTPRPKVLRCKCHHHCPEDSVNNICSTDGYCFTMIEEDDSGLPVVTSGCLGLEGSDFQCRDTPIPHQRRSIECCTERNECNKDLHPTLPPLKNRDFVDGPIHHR
Assay: as above

| Binder | BMPRIb binding relative to wild type |
| --- | --- |
| B1 | 0.35 relative to wt = 1.0 |
| B2 | 1.15 relative to wt = 1.0 |
| B3 | 0.87 relative to wt = 1.0 |
| B4 | 0.82 relative to wt = 1.0 |
| B5 | 0.86 relative to wt = 1.0 |
| B6 | 1.02 relative to wt = 1.0 |
| B7 | 0.6 relative to wt = 1.0 |
| B8 | 0.65 relative to wt = 1.0 |

Target: T5, ActRIIa receptor-Fc fusion (UniProt P27037 20-134, limits assumed)
T5 construct: BMP receptor-Fc fusion used at 5 ug/mL
Assay: ELISA-like plate assay, captured BMP-7 from conditioned media, receptor-Fc detection
T5 sequence (P27037 20-134 limits assumed): as the sequence (P27037 20-134 limits assumed) above

| Binder | ActRIIa binding (relative to wild type = 1.0) |
| --- | --- |
| B9 | 1.18 relative to wild type |
| B10 | 2.26 relative to wild type |
| B11 | 0.36 relative to wild type |
| B12 | 1 relative to wild type |
| B13 | 1.58 relative to wild type |
| B14 | 1.93 relative to wild type |
| B15 | 0.92 relative to wild type |
| B16 | 1.63 relative to wild type |
| B17 | 1.07 relative to wild type |
| B18 | 1.69 relative to wild type |
| B19 | 1.15 relative to wild type |
| B20 | 1.07 relative to wild type |
| B21 | 1 relative to wild type |
| B22 | 0.41 relative to wild type |
| B23 | 1.2 relative to wild type |
| B24 | 1.17 relative to wild type |
| B25 | 1.11 relative to wild type |
| B26 | 0.45 relative to wild type |
| B27 | 0.53 relative to wild type |
| B28 | 1.02 relative to wild type |

Target: T6, BMPRII receptor-Fc fusion (UniProt Q13873 27-151, limits assumed)
T6 construct: BMP receptor-Fc fusion used at 5 ug/mL
T6 sequence (looked up): T2 sequence (looked up)
Assay: as above

| Binder | BMPRII binding (relative to wild type = 1.0) |
| --- | --- |
| B9 | 0.91 relative to wild type |
| B10 | 3.13 relative to wild type |
| B11 | 0.25 relative to wild type |
| B12 | 0.91 relative to wild type |
| B13 | 1.77 relative to wild type |
| B14 | 2.72 relative to wild type |
| B15 | 0.85 relative to wild type |
| B16 | 2.66 relative to wild type |
| B17 | 1.47 relative to wild type |
| B18 | 1.25 relative to wild type |
| B19 | 0.97 relative to wild type |
| B20 | 1 relative to wild type |
| B21 | 0.97 relative to wild type |
| B22 | 0.82 relative to wild type |
| B23 | 1.52 relative to wild type |
| B24 | 0.98 relative to wild type |
| B25 | 1.78 relative to wild type |
| B26 | 1.46 relative to wild type |
| B27 | 0.22 relative to wild type |
| B28 | 0.73 relative to wild type |

Target: T7, BMPRIa receptor-Fc fusion (UniProt P36894 24-152, limits assumed)
T7 construct: also called ALK-3
Assay: as above
T7 sequence (P36894 24-152 limits assumed): as the sequence (P36894 24-152 limits assumed) above

| Binder | BMPRIa binding (relative to wild type = 1.0) |
| --- | --- |
| B9 | 1.05 relative to wild type |
| B10 | 1.36 relative to wild type |
| B11 | 1.09 relative to wild type |
| B12 | 0.58 relative to wild type |
| B13 | 1.29 relative to wild type |
| B14 | 1.05 relative to wild type |
| B15 | 0.75 relative to wild type |
| B16 | 0.87 relative to wild type |
| B17 | 1.36 relative to wild type |
| B18 | 0.92 relative to wild type |
| B19 | 0.77 relative to wild type |
| B20 | 1.08 relative to wild type |
| B21 | 1.14 relative to wild type |
| B22 | 0.35 relative to wild type |
| B23 | 1.75 relative to wild type |
| B24 | 0.81 relative to wild type |
| B25 | 1.4 relative to wild type |
| B26 | 2.05 relative to wild type |
| B27 | 0.67 relative to wild type |
| B28 | 1.02 relative to wild type |

Target: T8, BMPRIb receptor-Fc fusion (UniProt O00238 14-126)
T8 construct: BMP receptor-Fc fusion used at 5 ug/mL; also called ALK-6
T8 sequence (looked up): T4 sequence (looked up)
Assay: as above

| Binder | BMPRIb binding (relative to wild type = 1.0) |
| --- | --- |
| B9 | 1.11 relative to wild type |
| B10 | 2.39 relative to wild type |
| B11 | 1.33 relative to wild type |
| B12 | 0.79 relative to wild type |
| B13 | 2.75 relative to wild type |
| B14 | 2.01 relative to wild type |
| B15 | 0.69 relative to wild type |
| B16 | 2.4 relative to wild type |
| B17 | 1.34 relative to wild type |
| B18 | 0.33 relative to wild type |
| B19 | 0.79 relative to wild type |
| B20 | 1.66 relative to wild type |
| B21 | 1.43 relative to wild type |
| B22 | 0 relative to wild type |
| B23 | 2.17 relative to wild type |
| B24 | 0.94 relative to wild type |
| B25 | 1.57 relative to wild type |
| B26 | 1.81 relative to wild type |
| B27 | 0.17 relative to wild type |
| B28 | 1.38 relative to wild type |
